Reference: patent publication US20120276119A1 (IMMUNOGEN, published 2012)

T1: Human CD37 (human, UniProt P11049 1-278)
T1 sequence: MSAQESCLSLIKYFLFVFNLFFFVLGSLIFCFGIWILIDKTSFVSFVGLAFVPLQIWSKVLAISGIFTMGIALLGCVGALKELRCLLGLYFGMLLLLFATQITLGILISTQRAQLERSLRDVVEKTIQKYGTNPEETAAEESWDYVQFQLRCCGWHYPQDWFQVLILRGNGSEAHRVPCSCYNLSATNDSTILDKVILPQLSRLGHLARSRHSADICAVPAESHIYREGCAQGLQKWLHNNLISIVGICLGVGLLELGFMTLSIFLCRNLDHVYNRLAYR

T2: Murine CD37 (murine, UniProt Q61470 1-281)
T2 construct: Endogenous muCD37 on 300-19 murine pre-B cells and on wild type mouse spleen B cells; also called muCD37
T2 sequence: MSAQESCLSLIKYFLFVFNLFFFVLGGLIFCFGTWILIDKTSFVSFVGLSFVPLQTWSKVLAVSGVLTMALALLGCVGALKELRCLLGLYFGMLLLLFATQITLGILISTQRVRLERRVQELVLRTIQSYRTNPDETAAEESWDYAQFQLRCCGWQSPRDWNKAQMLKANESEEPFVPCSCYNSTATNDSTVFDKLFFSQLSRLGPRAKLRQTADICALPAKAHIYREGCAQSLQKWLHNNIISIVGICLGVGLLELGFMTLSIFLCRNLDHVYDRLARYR


Experiments:
Human CD37 [1] = target: T1, Human CD37; assay: cell-based or functional assay
Human CD37 [2] = target: T1, Human CD37; assay: flow cytometry on human tumor cells expressing human CD37
Murine CD37 = target: T2, Murine CD37; assay: flow cytometry titration on 300-19 murine pre-B cells expressing muCD37; anti-muIgG-PE detection; EC50 of the curve taken as the apparent Kd
Protocol: Cells were then washed and counterstained with anti muIgG-PE conjugate (Jackson Immunoresearch, West Grove, Pa.) for 30 minutes at 4° C. The cells were finally washed, fixed in formalin and analyzed by flow cytometry using a FACSarray (BD Bioscience, San Jose, Calif.). The flow cytometry data were analyzed using FlowJo (Tree Star Inc., Ashland, Oreg.) and the geometric mean fluorescence intensity was plotted against the antibody concentration in a semi-log plot (FIG. 8). A dose-response curve was generated by non-linear regression and the EC50 value of the curve, which corresponds to the apparent dissociation constant (Kd) of the antibody, was calculated using GraphPad Prism (GraphPad Software Inc., La Jolla, Calif.).

Binder	in vitro depletion of B-cells, whole human blood, 10 µg/mL, one donor (Human CD37 [1])	EC50 of in vitro B-cell depletion, purified human PBMCs, two donors (Human CD37 [1])	binding result (Human CD37 [2])	Kd (Murine CD37)
huCD37-3 (antibody, V domains shown) VH: QVQVQESGPGLVAPSQTLSITCTVSGFSLTTSGVSWVRQPPGKGLEWLGVIWGDGSTNYHPSLKSRLSIKKDHSKSQVFLKLNSLTAADTATYYCAKGGYSLAHWGQGTLVTVSS VL: DIQMTQSPSSLSVSVGERVTITCRASENIRSNLAWYQQKPGKSPKLLVNVATNLADGVPSRFSGSGSGTDYSLKINSLQPEDFGTYYCQHYWGTTWTFGQGTKLEIKR	~40%			
huCD37-3-SMCC-DM1 (antibody, V domains shown, DM1 maytansinoid linked via SMCC; sites, chain and drug load in the assay not stated) VH: QVQVQESGPGLVAPSQTLSITCTVSGFSLTTSGVSWVRQPPGKGLEWLGVIWGDGSTNYHPSLKSRLSIKKDHSKSQVFLKLNSLTAADTATYYCAKGGYSLAHWGQGTLVTVSS VL: DIQMTQSPSSLSVSVGERVTITCRASENIRSNLAWYQQKPGKSPKLLVNVATNLADGVPSRFSGSGSGTDYSLKINSLQPEDFGTYYCQHYWGTTWTFGQGTKLEIKR	~40%	0.04 to 0.075 µg/mL		
anti-muCD37 monoclonal antibody clone 252-3 (antibody, mouse IgG2a, V domains shown) VH: EVQVVESGGDLVKPGGSLKLSCAASGFTFSSYGMSWVRQTPDKRLEWVATISSGGSYTYSPDSVKGRFTISRDNAKKTLYLQMSSLKSEDTAMYYCARHSYYDTSVDYWGQGTSVTVSS VL: DIQMTQTTSSLSASLGDRVTISCRASQDISNYLNWYQQKPDGTVKLLIYYTSKLHSGVPSRFSGSGSGTDYSLTISNLEQEDIATYFCQQGNALPWTFGGGTKLELKR			no binding	14 nM
huCD37-50 (antibody, human IgG1, kappa, V domains shown) VH: QVQLQESGPGLLKPSQSLSLTCTVSGYSITSGFAWHWIRQHPGNKLEWMGYILYSGSTVYSPSLKSRISITRDTSKNHFFLQLNSVTAADTATYYCARGYYGYGAWFAYWGQGTLVTVSA VL: EIVLTQSPATMSASPGERVTMTCSATSSVTYMHWYQQKPGQSPKRWIYDTSNLPYGVPARFSGSGSGTSYSLTISSMEAEDAATYYCQQWSDNPPTFGQGTKLEIKR	~40%			
huCD37-50-SMCC-DM1 (antibody, human IgG1, kappa, V domains shown, DM1 maytansinoid linked via SMCC; sites, chain and drug load in the assay not stated) VH: QVQLQESGPGLLKPSQSLSLTCTVSGYSITSGFAWHWIRQHPGNKLEWMGYILYSGSTVYSPSLKSRISITRDTSKNHFFLQLNSVTAADTATYYCARGYYGYGAWFAYWGQGTLVTVSA VL: EIVLTQSPATMSASPGERVTMTCSATSSVTYMHWYQQKPGQSPKRWIYDTSNLPYGVPARFSGSGSGTSYSLTISSMEAEDAATYYCQQWSDNPPTFGQGTKLEIKR	~40%			
